Data from patent US20240024426A1, “HYPOTENSIVE PHARMACEUTICAL COMPOSITION COMPRISING TRIPLE ACTIVATOR HAVING ACTIVITY FOR ALL OF GLUCAGON, GLP-1, AND GIP RECEPTORS” (HANMI PHARM. CO., LTD., priority 2020, published 2024).
Bridges are numbered along the chain shown (N, C = ends). Where no end group is shown, it is not given here. [ ]: non-standard residue; d: D form. The star is where a group is joined. Acetyl(2-(4-imidazolyl)) = O=C(Cc1c[nH]cn1)*; Aib = CC(C)(N)C(=O)O

target: human GCG receptor (human, UniProt P47871 26-477); assay: cell-based or functional assay
Sequence (P47871 26-477): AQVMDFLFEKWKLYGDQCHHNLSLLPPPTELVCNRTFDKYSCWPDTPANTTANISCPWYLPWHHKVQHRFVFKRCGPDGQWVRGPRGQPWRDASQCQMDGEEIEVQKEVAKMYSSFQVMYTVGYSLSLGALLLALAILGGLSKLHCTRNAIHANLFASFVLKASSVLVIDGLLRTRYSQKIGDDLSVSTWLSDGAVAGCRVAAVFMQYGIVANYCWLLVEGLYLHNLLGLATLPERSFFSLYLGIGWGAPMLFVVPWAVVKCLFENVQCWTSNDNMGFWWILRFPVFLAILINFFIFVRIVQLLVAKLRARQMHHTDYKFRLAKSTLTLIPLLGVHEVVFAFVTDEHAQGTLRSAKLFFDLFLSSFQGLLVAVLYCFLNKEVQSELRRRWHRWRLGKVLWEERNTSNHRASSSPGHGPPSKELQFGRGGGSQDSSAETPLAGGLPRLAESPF

Row | Binder | In vitro activity compared with native peptide (%) vs. Glucagon [%]
1 | HGQGTFTSDCSKYLDGQRAQDFVNWLLAGGPSSGAPPPS [Triple agonist of SEQ ID NO: 48] | < 0.1
2 | {Acetyl(2-(4-imidazolyl))}-[Aib]QGTFTSDYSICMDEIHQKDFVNWLLNTK (bridge 15-19) [Triple agonist of SEQ ID NO: 49] | < 0.1
3 | H[Aib]QGTFTSDYSKYLDEKRAKEFVQWLLDHHPSSGQPPPSC (bridge 16-20) [Triple agonist of SEQ ID NO: 50] | 50.5
4 | H[Aib]QGTFTSDYSKYLDEKRQKEFVQWLLNTC (bridge 16-20) [Triple agonist of SEQ ID NO: 51] | 2
5 | H[Aib]QGTFTSDYSKYLDEKRQKEFVQWLLDTC (bridge 16-20) [Triple agonist of SEQ ID NO: 52] | 7.5
6 | H[Aib]EGTFTSDYSIAMDEIHQKDFVNWLLAQC (bridge 16-20) [Triple agonist of SEQ ID NO: 53] | 8.4
7 | H[Aib]EGTFTSDYSIAMDEIHQKDFVDWLLAEC (bridge 16-20) [Triple agonist of SEQ ID NO: 54] | 1.4
8 | H[Aib]QGTFTSDVSSYLDGQAAKEFVAWLLKGC [Triple agonist of SEQ ID NO: 6] | < 0.1
9 | H[Aib]QGTFTSDYSIAMDEIHQKDFVNWLLAQC (bridge 16-20) [Triple agonist of SEQ ID NO: 55] | 0.7
10 | H[Aib]QGTFTSDYSKYLDEKRQKEFVNWLLAQC (also: ring formation, positions not given here) [Triple agonist of SEQ ID NO: 56] | 4.9
11 | H[Aib]QGTFTSDYSIAMDEIHQKDFVNWLLNTC (bridge 16-20) [Triple agonist of SEQ ID NO: 57] | < 0.1
12 | H[Aib]QGTFTSDYSKYLDEKRQKEFVQWLLNTKC (bridge 16-20) [Triple agonist of SEQ ID NO: 58] | 2.6
13 | {Acetyl(2-(4-imidazolyl))}-[Aib]QGTFTSDYSICMDEKHQKDFVNWLLNTK (bridge 15-19) [Triple agonist of SEQ ID NO: 59] | < 0.1
14 | {Acetyl(2-(4-imidazolyl))}-[Aib]QGTFTSDYSIAMDEKHCKDFVNWLLNTK (bridge 15-19) [Triple agonist of SEQ ID NO: 60] | < 0.1

target: T1, human GIP receptor (human, UniProt P48546 22-466); assay: cell-based or functional assay
T1 sequence (looked up): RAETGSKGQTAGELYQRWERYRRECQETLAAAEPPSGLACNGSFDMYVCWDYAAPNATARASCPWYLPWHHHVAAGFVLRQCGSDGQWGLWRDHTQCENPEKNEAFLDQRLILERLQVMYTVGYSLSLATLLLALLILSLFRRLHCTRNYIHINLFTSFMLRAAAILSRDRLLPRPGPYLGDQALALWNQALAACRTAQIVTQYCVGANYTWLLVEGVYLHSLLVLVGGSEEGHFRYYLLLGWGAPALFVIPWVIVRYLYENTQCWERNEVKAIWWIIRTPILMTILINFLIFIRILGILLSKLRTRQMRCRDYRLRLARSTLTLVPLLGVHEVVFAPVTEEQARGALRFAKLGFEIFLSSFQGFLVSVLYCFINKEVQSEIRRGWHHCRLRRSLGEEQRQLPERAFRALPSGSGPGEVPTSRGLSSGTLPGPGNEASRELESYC

Row | Binder | In vitro activity compared with native peptide (%) vs. GIP [%]
15 | HGQGTFTSDCSKYLDGQRAQDFVNWLLAGGPSSGAPPPS [Triple agonist of SEQ ID NO: 48] | < 0.1
16 | {Acetyl(2-(4-imidazolyl))}-[Aib]QGTFTSDYSICMDEIHQKDFVNWLLNTK (bridge 15-19) [Triple agonist of SEQ ID NO: 49] | 3.3
17 | H[Aib]QGTFTSDYSKYLDEKRAKEFVQWLLDHHPSSGQPPPSC (bridge 16-20) [Triple agonist of SEQ ID NO: 50] | 2.7
18 | H[Aib]QGTFTSDYSKYLDEKRQKEFVQWLLNTC (bridge 16-20) [Triple agonist of SEQ ID NO: 51] | 0.1
19 | H[Aib]QGTFTSDYSKYLDEKRQKEFVQWLLDTC (bridge 16-20) [Triple agonist of SEQ ID NO: 52] | 0.3
20 | H[Aib]EGTFTSDYSIAMDEIHQKDFVNWLLAQC (bridge 16-20) [Triple agonist of SEQ ID NO: 53] | 1.3
21 | H[Aib]EGTFTSDYSIAMDEIHQKDFVDWLLAEC (bridge 16-20) [Triple agonist of SEQ ID NO: 54] | 0.1
22 | H[Aib]QGTFTSDVSSYLDGQAAKEFVAWLLKGC [Triple agonist of SEQ ID NO: 6] | < 0.1
23 | H[Aib]QGTFTSDYSIAMDEIHQKDFVNWLLAQC (bridge 16-20) [Triple agonist of SEQ ID NO: 55] | 2.4
24 | H[Aib]QGTFTSDYSKYLDEKRQKEFVNWLLAQC (also: ring formation, positions not given here) [Triple agonist of SEQ ID NO: 56] | 0.8
25 | H[Aib]QGTFTSDYSIAMDEIHQKDFVNWLLNTC (bridge 16-20) [Triple agonist of SEQ ID NO: 57] | 0.3
26 | H[Aib]QGTFTSDYSKYLDEKRQKEFVQWLLNTKC (bridge 16-20) [Triple agonist of SEQ ID NO: 58] | 0.2
27 | {Acetyl(2-(4-imidazolyl))}-[Aib]QGTFTSDYSICMDEKHQKDFVNWLLNTK (bridge 15-19) [Triple agonist of SEQ ID NO: 59] | 4
28 | {Acetyl(2-(4-imidazolyl))}-[Aib]QGTFTSDYSIAMDEKHCKDFVNWLLNTK (bridge 15-19) [Triple agonist of SEQ ID NO: 60] | 8.2

target: human GLP-1 receptor (human, UniProt P43220 24-463); assay: cell-based or functional assay

Row | Binder | In vitro activity compared with native peptide (%) vs. GLP-1 [%]
29 | [Acetyl(2-(4-imidazolyl))][Aib]QGTFTSDKSSYLDERAAQDFVQWLLDGGPSSGAPPPSS [Triple agonist of SEQ ID NO: 38] | 2.3
30 | HGQGTFTSDCSKYLDGQRAQDFVNWLLAGGPSSGAPPPS [Triple agonist of SEQ ID NO: 48] | 1.5
31 | {Acetyl(2-(4-imidazolyl))}-[Aib]QGTFTSDYSICMDEIHQKDFVNWLLNTK (bridge 15-19) [Triple agonist of SEQ ID NO: 49] | 29.8
32 | H[Aib]QGTFTSDYSKYLDEKRAKEFVQWLLDHHPSSGQPPPSC (bridge 16-20) [Triple agonist of SEQ ID NO: 50] | 67.4
33 | H[Aib]QGTFTSDYSKYLDEKRQKEFVQWLLNTC (bridge 16-20) [Triple agonist of SEQ ID NO: 51] | 14.4
34 | H[Aib]QGTFTSDYSKYLDEKRQKEFVQWLLDTC (bridge 16-20) [Triple agonist of SEQ ID NO: 52] | 44.1
35 | H[Aib]EGTFTSDYSIAMDEIHQKDFVNWLLAQC (bridge 16-20) [Triple agonist of SEQ ID NO: 53] | 161
36 | H[Aib]EGTFTSDYSIAMDEIHQKDFVDWLLAEC (bridge 16-20) [Triple agonist of SEQ ID NO: 54] | 30.6
37 | H[Aib]QGTFTSDVSSYLDGQAAKEFVAWLLKGC [Triple agonist of SEQ ID NO: 6] | 17
38 | H[Aib]QGTFTSDYSIAMDEIHQKDFVNWLLAQC (bridge 16-20) [Triple agonist of SEQ ID NO: 55] | 27.1
39 | H[Aib]QGTFTSDYSKYLDEKRQKEFVNWLLAQC (also: ring formation, positions not given here) [Triple agonist of SEQ ID NO: 56] | 57.9
40 | H[Aib]QGTFTSDYSIAMDEIHQKDFVNWLLNTC (bridge 16-20) [Triple agonist of SEQ ID NO: 57] | 11.7
41 | H[Aib]QGTFTSDYSKYLDEKRQKEFVQWLLNTKC (bridge 16-20) [Triple agonist of SEQ ID NO: 58] | 39.1
42 | {Acetyl(2-(4-imidazolyl))}-[Aib]QGTFTSDYSICMDEKHQKDFVNWLLNTK (bridge 15-19) [Triple agonist of SEQ ID NO: 59] | 40.3
43 | {Acetyl(2-(4-imidazolyl))}-[Aib]QGTFTSDYSIAMDEKHCKDFVNWLLNTK (bridge 15-19) [Triple agonist of SEQ ID NO: 60] | 106
